Laboratory results from PMC5570508.

Assays:
Assay in all cases: fluorescence polarisation; titration: 5-FAM-labeled protein at 0.5 or 1 μM titrated with unlabeled protein; 20°C; analysis buffer (20 mM NaH2PO4, 50 mM NaCl, 1 mM DTT pH 7); single site binding model
[1] = molecular target: PfEMP1 ATS of variant PFF0845c, fluorescently labeled (H159C) (P. falciparum)
[2] = molecular target: KAHRP K2, fluorescently labeled (C414A/C450A) (P. falciparum)
[3] = molecular target: PfEMP1 Acidic Terminal Segment (ATS) of variant PF08_0141, fluorescently labeled (Q150C) (P. falciparum)

α spectrin construct spanning domains 17 to the protein C-terminus, sequence (P02549 1704-2395): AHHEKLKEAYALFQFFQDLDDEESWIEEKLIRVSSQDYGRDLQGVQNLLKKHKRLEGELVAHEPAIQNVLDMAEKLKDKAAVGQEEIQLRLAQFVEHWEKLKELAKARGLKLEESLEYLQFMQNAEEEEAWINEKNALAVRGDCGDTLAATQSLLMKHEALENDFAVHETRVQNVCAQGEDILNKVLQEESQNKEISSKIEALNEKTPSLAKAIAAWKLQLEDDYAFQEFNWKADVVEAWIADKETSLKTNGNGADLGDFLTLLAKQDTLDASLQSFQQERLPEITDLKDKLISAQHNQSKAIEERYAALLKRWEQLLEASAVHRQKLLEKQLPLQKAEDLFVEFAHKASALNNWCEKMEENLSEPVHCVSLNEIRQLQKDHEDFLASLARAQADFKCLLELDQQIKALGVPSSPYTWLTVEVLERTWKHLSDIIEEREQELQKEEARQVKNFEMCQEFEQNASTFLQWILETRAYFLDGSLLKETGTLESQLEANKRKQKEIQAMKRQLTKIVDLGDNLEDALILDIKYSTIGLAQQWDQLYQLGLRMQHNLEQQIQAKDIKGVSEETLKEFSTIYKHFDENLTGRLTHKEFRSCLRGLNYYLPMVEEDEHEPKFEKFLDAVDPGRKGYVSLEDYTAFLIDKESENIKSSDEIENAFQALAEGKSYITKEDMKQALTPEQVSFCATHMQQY
spectrin α chain domains 12–16, sequence (P02549 1174-1716): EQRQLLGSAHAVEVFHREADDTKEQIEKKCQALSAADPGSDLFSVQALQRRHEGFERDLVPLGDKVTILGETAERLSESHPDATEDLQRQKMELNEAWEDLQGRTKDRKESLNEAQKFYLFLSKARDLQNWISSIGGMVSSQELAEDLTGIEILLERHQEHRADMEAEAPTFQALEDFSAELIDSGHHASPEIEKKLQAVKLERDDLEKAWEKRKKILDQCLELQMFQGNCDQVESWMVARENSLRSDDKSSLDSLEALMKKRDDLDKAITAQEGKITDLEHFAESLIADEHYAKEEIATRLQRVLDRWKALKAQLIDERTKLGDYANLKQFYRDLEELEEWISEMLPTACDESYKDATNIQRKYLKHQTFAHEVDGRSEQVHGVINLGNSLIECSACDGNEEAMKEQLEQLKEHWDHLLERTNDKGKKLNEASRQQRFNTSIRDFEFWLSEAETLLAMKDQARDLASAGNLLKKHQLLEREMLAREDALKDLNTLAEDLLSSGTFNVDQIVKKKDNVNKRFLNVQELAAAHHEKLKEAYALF
spectrin α chain domain 17, sequence (P02549 1704-1828): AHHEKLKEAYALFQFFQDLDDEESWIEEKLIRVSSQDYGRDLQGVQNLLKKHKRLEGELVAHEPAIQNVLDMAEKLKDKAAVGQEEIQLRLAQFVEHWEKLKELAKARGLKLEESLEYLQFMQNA
spectrin β chain domains 10–14, sequence (P11277 1272-1804): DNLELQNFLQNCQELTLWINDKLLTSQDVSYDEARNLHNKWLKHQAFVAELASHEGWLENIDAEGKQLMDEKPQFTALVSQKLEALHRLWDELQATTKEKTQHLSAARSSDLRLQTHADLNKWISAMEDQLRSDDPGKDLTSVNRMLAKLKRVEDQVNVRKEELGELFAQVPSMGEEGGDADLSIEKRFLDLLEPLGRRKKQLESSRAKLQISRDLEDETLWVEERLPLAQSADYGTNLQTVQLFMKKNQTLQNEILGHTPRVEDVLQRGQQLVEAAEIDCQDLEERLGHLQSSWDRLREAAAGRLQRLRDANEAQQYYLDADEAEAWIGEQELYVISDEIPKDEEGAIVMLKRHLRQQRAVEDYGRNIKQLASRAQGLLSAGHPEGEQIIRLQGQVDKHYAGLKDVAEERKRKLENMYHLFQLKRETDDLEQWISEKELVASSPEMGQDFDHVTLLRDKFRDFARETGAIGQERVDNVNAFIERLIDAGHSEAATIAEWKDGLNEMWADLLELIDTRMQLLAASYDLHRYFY

Substance	Kd [2]	further results
spectrin α chain domain 17 (from UniProt P02549 1704-1828) (domain or fragment)		Kd [1]: 24 µM
spectrin α chain domains 12–16 (from UniProt P02549 1174-1716) (domain or fragment)	160 µM	
spectrin β chain domains 10–14 (from UniProt P11277 1272-1804) (domain or fragment)	50 µM	
α spectrin construct spanning domains 17 to the protein C-terminus (from UniProt P02549 1704-2395) (domain or fragment)		Kd [3]: 59 µM
